Assay results reported in patent publication US20250076311A1 (Chugai, published 2025).
Residue numbers refer to the chain shown, from its start. Names and notes keep the numbering of the source. Blank lines part the entries; values can stand above or below the binder they belong to.

Assays:
Assay in all cases: SPR (Biacore), 25C, FcgR bound per antibody captured
[1] = molecular target: T1, human FcγRIIb extracellular domain, His-tagged (human, UniProt P31994 43-217)
T1 construct: also called human FcgRIIb
T1 sequence: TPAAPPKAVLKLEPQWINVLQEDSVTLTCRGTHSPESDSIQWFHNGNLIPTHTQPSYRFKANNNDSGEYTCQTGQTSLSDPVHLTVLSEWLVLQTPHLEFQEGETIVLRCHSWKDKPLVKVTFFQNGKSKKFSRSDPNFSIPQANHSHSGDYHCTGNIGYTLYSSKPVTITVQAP

[2] = molecular target: T2, human FcγRIIaR extracellular domain, His-tagged (human, UniProt P12318 34-217)
T2 construct: also called human FcgRIIaR; FcγRIIa type R
T2 chain: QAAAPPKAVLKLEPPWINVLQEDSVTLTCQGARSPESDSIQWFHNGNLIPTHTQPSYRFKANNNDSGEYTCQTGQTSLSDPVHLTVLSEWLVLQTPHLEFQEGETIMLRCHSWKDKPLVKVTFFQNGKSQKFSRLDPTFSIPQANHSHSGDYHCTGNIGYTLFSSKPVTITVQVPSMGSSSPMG

[3] = molecular target: T3, human FcγRIIIaV extracellular domain, His-tagged (human, UniProt P08637 17-208)
T3 construct: also called human FcgRIIIaV

[4] = molecular target: T4, human FcγRIIaH extracellular domain, His-tagged (human, UniProt P12318 34-217)
T4 construct: also called human FcgRIIaH; FcγRIIa type H
T4 sequence: T2 chain with R134H

B1: GpH7-B3 G236D / GpL16-k0 (antibody, human IgG1, kappa)
heavy: not shown
light: DIVMTQSPLSLPVTPGEPASISCQASESLVHSNRNTYLHWYLQKPGQSPQLLIYKVSNRFSGVPDRFSGSGSGTDFTLKISRVEAEDVGVYYCSQNTHVPPTFGQGTKVEIERTVAAPSVFIFPPSDEQLKSGTASVVCLLNNFYPREAKVQWKVDNALQSGNSQESVTEQDSKDSTYSLSSTLTLSKADYEKHKVYACEVTHQGLSSPVTKSFNRGEC
notes: also called B3 variant G236D
Binding to human FcgRs (parent B3 = 100) [1]: 212
Binding to human FcgRs (parent B3 = 100) [2]: 91
Binding to human FcgRs (parent B3 = 100) [3]: 25
Binding to human FcgRs (parent B3 = 100) [4]: 109

B2: GpH7-B3 K334I / GpL16-k0 (antibody, human IgG1, kappa)
heavy: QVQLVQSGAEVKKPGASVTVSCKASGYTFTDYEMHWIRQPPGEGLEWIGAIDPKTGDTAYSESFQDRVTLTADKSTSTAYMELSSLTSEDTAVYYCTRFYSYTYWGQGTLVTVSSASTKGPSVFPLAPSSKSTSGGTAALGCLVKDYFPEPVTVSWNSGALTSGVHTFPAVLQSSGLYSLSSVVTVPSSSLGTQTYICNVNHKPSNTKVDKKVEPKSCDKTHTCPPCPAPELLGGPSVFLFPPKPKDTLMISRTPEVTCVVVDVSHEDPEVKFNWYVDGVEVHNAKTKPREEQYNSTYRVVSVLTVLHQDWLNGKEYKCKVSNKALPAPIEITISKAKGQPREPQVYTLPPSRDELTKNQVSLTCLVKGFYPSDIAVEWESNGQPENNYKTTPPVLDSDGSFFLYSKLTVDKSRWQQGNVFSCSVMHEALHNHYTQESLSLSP
light: B1 light
notes: also called B3 variant K334I
Binding to human FcgRs (parent B3 = 100) [1]: 174
Binding to human FcgRs (parent B3 = 100) [2]: 137
Binding to human FcgRs (parent B3 = 100) [3]: 187
Binding to human FcgRs (parent B3 = 100) [4]: 169

B5: GpH7-B3 L234W / GpL16-k0 (antibody, human IgG1, kappa)
heavy: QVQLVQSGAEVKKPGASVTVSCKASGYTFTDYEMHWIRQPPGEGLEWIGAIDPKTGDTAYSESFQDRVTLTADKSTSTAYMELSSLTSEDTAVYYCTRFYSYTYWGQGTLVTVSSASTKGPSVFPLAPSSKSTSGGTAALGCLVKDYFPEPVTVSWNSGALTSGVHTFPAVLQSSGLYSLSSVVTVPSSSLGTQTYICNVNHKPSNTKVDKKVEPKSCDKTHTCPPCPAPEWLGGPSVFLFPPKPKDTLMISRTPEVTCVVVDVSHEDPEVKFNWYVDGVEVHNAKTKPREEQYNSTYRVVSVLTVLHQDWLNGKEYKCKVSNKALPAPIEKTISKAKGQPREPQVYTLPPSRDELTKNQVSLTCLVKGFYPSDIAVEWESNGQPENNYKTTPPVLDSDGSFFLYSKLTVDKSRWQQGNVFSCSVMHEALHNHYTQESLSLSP
light: B1 light
notes: also called B3 variant L234W
Binding to human FcgRs (parent B3 = 100) [1]: 90
Binding to human FcgRs (parent B3 = 100) [2]: 63
Binding to human FcgRs (parent B3 = 100) [3]: 36
Binding to human FcgRs (parent B3 = 100) [4]: 64

B6: GpH7-B3 I332D / GpL16-k0 (antibody, human IgG1, kappa)
heavy: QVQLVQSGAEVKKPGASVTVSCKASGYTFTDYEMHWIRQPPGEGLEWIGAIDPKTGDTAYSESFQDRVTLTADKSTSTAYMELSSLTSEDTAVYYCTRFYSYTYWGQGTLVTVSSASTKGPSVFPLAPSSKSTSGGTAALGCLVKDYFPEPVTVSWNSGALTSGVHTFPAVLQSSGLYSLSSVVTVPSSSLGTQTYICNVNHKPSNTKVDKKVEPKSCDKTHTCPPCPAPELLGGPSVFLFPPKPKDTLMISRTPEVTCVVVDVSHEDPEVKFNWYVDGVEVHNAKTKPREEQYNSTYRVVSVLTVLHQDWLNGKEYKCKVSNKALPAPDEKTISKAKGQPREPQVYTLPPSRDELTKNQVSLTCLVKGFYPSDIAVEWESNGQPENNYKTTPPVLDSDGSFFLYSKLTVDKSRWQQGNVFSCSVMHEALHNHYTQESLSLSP
light: B1 light
notes: also called B3 variant I332D
Binding to human FcgRs (parent B3 = 100) [1]: 198
Binding to human FcgRs (parent B3 = 100) [2]: 139
Binding to human FcgRs (parent B3 = 100) [3]: 235
Binding to human FcgRs (parent B3 = 100) [4]: 129

B7: GpH7-B3 K334Y / GpL16-k0 (antibody, human IgG1, kappa)
heavy: not shown
light: B1 light
notes: also called B3 variant K334Y
Binding to human FcgRs (parent B3 = 100) [1]: 160
Binding to human FcgRs (parent B3 = 100) [2]: 131
Binding to human FcgRs (parent B3 = 100) [3]: 188
Binding to human FcgRs (parent B3 = 100) [4]: 157

B8: GpH7-B3 K326T / GpL16-k0 (antibody, human IgG1, kappa)
heavy: not shown
light: B1 light
notes: also called B3 variant K326T
Binding to human FcgRs (parent B3 = 100) [1]: 195
Binding to human FcgRs (parent B3 = 100) [2]: 127
Binding to human FcgRs (parent B3 = 100) [3]: 164
Binding to human FcgRs (parent B3 = 100) [4]: 138

B9: GpH7-B3 K334M / GpL16-k0 (antibody, human IgG1, kappa)
heavy: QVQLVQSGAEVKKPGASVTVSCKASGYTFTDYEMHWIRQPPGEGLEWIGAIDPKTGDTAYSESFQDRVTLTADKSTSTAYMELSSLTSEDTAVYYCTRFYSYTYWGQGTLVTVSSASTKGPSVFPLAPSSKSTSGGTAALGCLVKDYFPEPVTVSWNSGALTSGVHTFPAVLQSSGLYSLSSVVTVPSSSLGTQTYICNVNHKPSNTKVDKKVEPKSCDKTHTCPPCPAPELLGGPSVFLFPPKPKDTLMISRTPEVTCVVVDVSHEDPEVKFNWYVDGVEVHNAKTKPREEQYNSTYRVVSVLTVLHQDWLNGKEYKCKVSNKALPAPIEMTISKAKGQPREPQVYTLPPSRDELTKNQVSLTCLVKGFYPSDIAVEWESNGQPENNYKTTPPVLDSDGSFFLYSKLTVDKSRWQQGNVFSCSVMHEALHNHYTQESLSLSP
light: B1 light
notes: also called B3 variant K334M
Binding to human FcgRs (parent B3 = 100) [1]: 148
Binding to human FcgRs (parent B3 = 100) [2]: 127
Binding to human FcgRs (parent B3 = 100) [3]: 183
Binding to human FcgRs (parent B3 = 100) [4]: 151

B13: GpH7-B3 H268D / GpL16-k0 (antibody, human IgG1, kappa)
heavy: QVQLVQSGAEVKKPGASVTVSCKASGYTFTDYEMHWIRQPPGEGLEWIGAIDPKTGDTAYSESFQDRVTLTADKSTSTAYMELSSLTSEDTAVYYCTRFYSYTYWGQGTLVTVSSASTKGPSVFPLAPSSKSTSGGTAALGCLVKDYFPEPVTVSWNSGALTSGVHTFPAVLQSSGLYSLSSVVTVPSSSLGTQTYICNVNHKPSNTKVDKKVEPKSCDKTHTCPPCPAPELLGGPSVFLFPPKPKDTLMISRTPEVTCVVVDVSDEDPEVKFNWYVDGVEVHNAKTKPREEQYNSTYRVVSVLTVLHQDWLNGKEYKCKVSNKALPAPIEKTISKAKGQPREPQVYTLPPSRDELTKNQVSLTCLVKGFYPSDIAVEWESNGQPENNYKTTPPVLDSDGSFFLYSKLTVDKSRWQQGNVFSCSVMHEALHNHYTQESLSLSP
light: B1 light
notes: also called B3 variant H268D
Binding to human FcgRs (parent B3 = 100) [1]: 307
Binding to human FcgRs (parent B3 = 100) [2]: 142
Binding to human FcgRs (parent B3 = 100) [3]: 220
Binding to human FcgRs (parent B3 = 100) [4]: 173

B16: GpH7-B3 G236E / GpL16-k0 (antibody, human IgG1, kappa)
heavy: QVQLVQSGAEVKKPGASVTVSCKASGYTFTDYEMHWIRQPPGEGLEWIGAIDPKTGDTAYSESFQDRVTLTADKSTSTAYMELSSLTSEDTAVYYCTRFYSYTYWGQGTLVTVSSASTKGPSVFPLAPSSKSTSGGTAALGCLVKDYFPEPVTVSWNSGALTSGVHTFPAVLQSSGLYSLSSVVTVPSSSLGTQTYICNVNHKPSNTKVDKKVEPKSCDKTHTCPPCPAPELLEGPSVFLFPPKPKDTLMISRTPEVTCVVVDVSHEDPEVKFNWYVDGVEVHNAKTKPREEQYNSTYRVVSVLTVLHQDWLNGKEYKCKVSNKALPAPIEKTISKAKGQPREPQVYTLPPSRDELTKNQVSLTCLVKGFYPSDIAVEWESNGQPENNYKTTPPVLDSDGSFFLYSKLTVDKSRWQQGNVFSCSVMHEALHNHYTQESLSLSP
light: B1 light
notes: also called B3 variant G236E
Binding to human FcgRs (parent B3 = 100) [1]: 117
Binding to human FcgRs (parent B3 = 100) [2]: 131
Binding to human FcgRs (parent B3 = 100) [3]: 33
Binding to human FcgRs (parent B3 = 100) [4]: 142

B17: GpH7-B3 H268E / GpL16-k0 (antibody, human IgG1, kappa)
heavy: not shown
light: B1 light
notes: also called B3 variant H268E
Binding to human FcgRs (parent B3 = 100) [1]: 283
Binding to human FcgRs (parent B3 = 100) [2]: 132
Binding to human FcgRs (parent B3 = 100) [3]: 205
Binding to human FcgRs (parent B3 = 100) [4]: 169

B20: GpH7-B3 K334D / GpL16-k0 (antibody, human IgG1, kappa)
heavy: not shown
light: B1 light
notes: also called B3 variant K334D
Binding to human FcgRs (parent B3 = 100) [1]: 108
Binding to human FcgRs (parent B3 = 100) [2]: 72
Binding to human FcgRs (parent B3 = 100) [3]: 155
Binding to human FcgRs (parent B3 = 100) [4]: 97

B21: GpH7-B3 G236S / GpL16-k0 (antibody, human IgG1, kappa)
heavy: not shown
light: B1 light
notes: also called B3 variant G236S
Binding to human FcgRs (parent B3 = 100) [1]: 87
Binding to human FcgRs (parent B3 = 100) [2]: 161
Binding to human FcgRs (parent B3 = 100) [3]: 33
Binding to human FcgRs (parent B3 = 100) [4]: 147

B23: GpH7-B3 K334V / GpL16-k0 (antibody, human IgG1, kappa)
heavy: not shown
light: B1 light
notes: also called B3 variant K334V
Binding to human FcgRs (parent B3 = 100) [1]: 184
Binding to human FcgRs (parent B3 = 100) [2]: 132
Binding to human FcgRs (parent B3 = 100) [3]: 176
Binding to human FcgRs (parent B3 = 100) [4]: 172

B24: GpH7-B3 L234Y / GpL16-k0 (antibody, human IgG1, kappa)
heavy: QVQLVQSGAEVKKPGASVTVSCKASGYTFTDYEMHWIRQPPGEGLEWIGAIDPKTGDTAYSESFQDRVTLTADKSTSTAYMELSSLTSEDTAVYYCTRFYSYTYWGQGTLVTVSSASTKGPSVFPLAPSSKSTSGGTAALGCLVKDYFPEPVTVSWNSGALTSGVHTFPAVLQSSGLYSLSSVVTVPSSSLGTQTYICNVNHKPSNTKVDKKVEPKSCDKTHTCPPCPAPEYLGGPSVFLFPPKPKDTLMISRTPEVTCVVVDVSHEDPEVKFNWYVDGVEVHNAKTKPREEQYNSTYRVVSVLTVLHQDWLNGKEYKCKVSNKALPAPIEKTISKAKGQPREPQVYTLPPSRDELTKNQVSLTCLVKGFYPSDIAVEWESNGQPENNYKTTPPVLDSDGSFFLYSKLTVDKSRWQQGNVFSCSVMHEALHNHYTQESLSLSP
light: B1 light
notes: also called B3 variant L234Y
Binding to human FcgRs (parent B3 = 100) [1]: 55
Binding to human FcgRs (parent B3 = 100) [2]: 50
Binding to human FcgRs (parent B3 = 100) [3]: 63
Binding to human FcgRs (parent B3 = 100) [4]: 38

More lines, now with the values ahead:

Binding to human FcgRs (parent B3 = 100) [1]: 107
Binding to human FcgRs (parent B3 = 100) [2]: 71
Binding to human FcgRs (parent B3 = 100) [3]: 48
Binding to human FcgRs (parent B3 = 100) [4]: 79
B3: GpH7-B3 S239V / GpL16-k0 (antibody, human IgG1, kappa)
heavy: not shown
light: B1 light
notes: also called B3 variant S239V

Binding to human FcgRs (parent B3 = 100) [1]: 252
Binding to human FcgRs (parent B3 = 100) [2]: 130
Binding to human FcgRs (parent B3 = 100) [3]: 93
Binding to human FcgRs (parent B3 = 100) [4]: 152
B4: GpH7-B3 P271G / GpL16-k0 (antibody, human IgG1, kappa)
heavy: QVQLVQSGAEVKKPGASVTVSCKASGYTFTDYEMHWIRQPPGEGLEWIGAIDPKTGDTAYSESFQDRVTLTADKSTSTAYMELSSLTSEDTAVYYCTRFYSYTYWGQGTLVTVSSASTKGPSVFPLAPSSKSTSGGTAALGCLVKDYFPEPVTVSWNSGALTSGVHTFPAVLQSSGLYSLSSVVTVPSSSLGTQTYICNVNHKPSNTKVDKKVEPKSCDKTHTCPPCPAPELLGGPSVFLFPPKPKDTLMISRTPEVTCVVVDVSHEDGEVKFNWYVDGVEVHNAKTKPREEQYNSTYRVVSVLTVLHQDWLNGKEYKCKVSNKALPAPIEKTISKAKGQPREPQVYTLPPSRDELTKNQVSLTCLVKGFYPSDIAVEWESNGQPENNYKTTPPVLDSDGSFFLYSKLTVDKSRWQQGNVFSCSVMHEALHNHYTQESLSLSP
light: B1 light
notes: also called B3 variant P271G

Binding to human FcgRs (parent B3 = 100) [1]: 100
Binding to human FcgRs (parent B3 = 100) [2]: 67
Binding to human FcgRs (parent B3 = 100) [3]: 46
Binding to human FcgRs (parent B3 = 100) [4]: 96
B10: GpH7-B3 P331E / GpL16-k0 (antibody, human IgG1, kappa)
heavy: not shown
light: B1 light
notes: also called B3 variant P331E

Binding to human FcgRs (parent B3 = 100) [1]: 124
Binding to human FcgRs (parent B3 = 100) [2]: 80
Binding to human FcgRs (parent B3 = 100) [3]: 111
Binding to human FcgRs (parent B3 = 100) [4]: 99
B11: GpH7-B3 S239N / GpL16-k0 (antibody, human IgG1, kappa)
heavy: not shown
light: B1 light
notes: also called B3 variant S239N

Binding to human FcgRs (parent B3 = 100) [1]: 108
Binding to human FcgRs (parent B3 = 100) [2]: 75
Binding to human FcgRs (parent B3 = 100) [3]: 47
Binding to human FcgRs (parent B3 = 100) [4]: 82
B12: GpH7-B3 S239I / GpL16-k0 (antibody, human IgG1, kappa)
heavy: not shown
light: B1 light
notes: also called B3 variant S239I

Binding to human FcgRs (parent B3 = 100) [1]: 156
Binding to human FcgRs (parent B3 = 100) [2]: 148
Binding to human FcgRs (parent B3 = 100) [3]: 135
Binding to human FcgRs (parent B3 = 100) [4]: 128
B14: GpH7-B3 Q295L / GpL16-k0 (antibody, human IgG1, kappa)
heavy: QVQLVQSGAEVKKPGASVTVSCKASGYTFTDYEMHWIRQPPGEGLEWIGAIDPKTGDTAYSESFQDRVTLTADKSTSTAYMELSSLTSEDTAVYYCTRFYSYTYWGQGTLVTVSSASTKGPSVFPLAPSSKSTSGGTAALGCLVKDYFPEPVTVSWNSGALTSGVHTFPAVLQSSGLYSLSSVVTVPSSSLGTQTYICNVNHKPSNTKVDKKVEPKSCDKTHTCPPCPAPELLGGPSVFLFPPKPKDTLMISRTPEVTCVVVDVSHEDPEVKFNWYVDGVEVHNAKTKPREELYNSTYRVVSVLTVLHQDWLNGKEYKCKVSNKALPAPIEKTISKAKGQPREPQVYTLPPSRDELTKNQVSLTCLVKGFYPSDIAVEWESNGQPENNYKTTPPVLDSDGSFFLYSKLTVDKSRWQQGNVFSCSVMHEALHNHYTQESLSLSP
light: B1 light
notes: also called B3 variant Q295L

Binding to human FcgRs (parent B3 = 100) [1]: 179
Binding to human FcgRs (parent B3 = 100) [2]: 135
Binding to human FcgRs (parent B3 = 100) [3]: 53
Binding to human FcgRs (parent B3 = 100) [4]: 156
B15: GpH7-B3 L328T / GpL16-k0 (antibody, human IgG1, kappa)
heavy: not shown
light: B1 light
notes: also called B3 variant L328T

Binding to human FcgRs (parent B3 = 100) [1]: 114
Binding to human FcgRs (parent B3 = 100) [2]: 71
Binding to human FcgRs (parent B3 = 100) [3]: 51
Binding to human FcgRs (parent B3 = 100) [4]: 99
B18: GpH7-B3 S298L / GpL16-k0 (antibody, human IgG1, kappa)
heavy: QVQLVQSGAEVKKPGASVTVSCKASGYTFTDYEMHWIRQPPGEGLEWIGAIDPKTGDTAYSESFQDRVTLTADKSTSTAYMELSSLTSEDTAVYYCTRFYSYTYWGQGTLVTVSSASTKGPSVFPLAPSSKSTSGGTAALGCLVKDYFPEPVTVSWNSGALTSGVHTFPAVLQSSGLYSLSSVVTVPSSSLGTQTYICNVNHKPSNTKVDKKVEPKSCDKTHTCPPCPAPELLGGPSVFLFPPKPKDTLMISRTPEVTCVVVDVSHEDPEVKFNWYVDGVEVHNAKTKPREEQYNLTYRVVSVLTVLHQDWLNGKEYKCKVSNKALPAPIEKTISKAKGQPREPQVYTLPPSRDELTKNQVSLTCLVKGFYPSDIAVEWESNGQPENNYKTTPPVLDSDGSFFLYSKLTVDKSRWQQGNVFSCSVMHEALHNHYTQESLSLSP
light: B1 light
notes: also called B3 variant S298L

Binding to human FcgRs (parent B3 = 100) [1]: 130
Binding to human FcgRs (parent B3 = 100) [2]: 128
Binding to human FcgRs (parent B3 = 100) [3]: 40
Binding to human FcgRs (parent B3 = 100) [4]: 136
B19: GpH7-B3 L235W / GpL16-k0 (antibody, human IgG1, kappa)
heavy: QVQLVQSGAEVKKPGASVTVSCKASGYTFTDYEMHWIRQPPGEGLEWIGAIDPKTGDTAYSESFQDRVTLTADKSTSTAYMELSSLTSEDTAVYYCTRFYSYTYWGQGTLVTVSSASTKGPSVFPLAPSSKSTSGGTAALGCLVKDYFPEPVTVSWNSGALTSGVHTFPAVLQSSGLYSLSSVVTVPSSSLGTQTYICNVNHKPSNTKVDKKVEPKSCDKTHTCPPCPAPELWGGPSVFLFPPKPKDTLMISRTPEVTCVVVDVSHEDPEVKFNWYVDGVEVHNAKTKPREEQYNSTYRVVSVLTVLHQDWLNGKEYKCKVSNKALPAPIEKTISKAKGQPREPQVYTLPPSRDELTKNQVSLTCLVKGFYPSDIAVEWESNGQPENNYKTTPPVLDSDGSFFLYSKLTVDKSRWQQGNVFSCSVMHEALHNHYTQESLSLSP
light: B1 light
notes: also called B3 variant L235W

Binding to human FcgRs (parent B3 = 100) [1]: 283
Binding to human FcgRs (parent B3 = 100) [2]: 125
Binding to human FcgRs (parent B3 = 100) [3]: 145
Binding to human FcgRs (parent B3 = 100) [4]: 176
B22: GpH7-B3 S267A / GpL16-k0 (antibody, human IgG1, kappa)
heavy: not shown
light: B1 light
notes: also called B3 variant S267A
